Publication PMC12199698, “Reliable prediction of protein–protein binding affinity changes upon mutations with Pythia-PPI” (National Science Review, 2025)

Molecular target: T1, SARS-CoV-2 prototype receptor binding domain (SARS-CoV-2 prototype, GISAID …, UniProt P0DTC2)
T1 construct: also called SARS-CoV-2 PT RBD; RBD
Test: SPR; BIAcore 8K; antibody captured on a Protein A chip ([…]; running buffer PBST (PBS + 0.05% ([…]) Tween 20); […]; 1:1 (Langmuir) binding model; […]
Conditions: both partners purified

B1: CB6 antibody (wild type) (antibody, V domains shown)
VH: EVQLVESGGGLVQPGGSLRLSCAASGFTVSSNYMSWVRQAPGKGLEWVSVIYSGGSTFYADSVKGRFTISRDNSMNTLFLQMNSLRAEDTAVYYCARVLPMYGDYLDYWGQGTLVTVSS
VL: not shown
notes: heavy chain variable region of CB6; constant region of human IgG1; light chain variable part of CB6; Ig kappa chain (constant part) to which the light chain was fused; IgG1, kappa; also called WT
For B1, which Kd is on record?
The Kd was 14.6 nM.
